Biological target: T1, C-terminal tail peptide (FITC-SMEAVDSERRPHFPQFSYSASGTA) (human, C460A (from the letters against P31749, from memory; not stated by the paper) …, FITC (fluorescein) on the N-terminus; unphosphorylated)
T1 construct: residues 457 to 480 of human Akt1 (the C-terminal tail residues missing in Akt1^ΔC); The methods call it 'the C-terminal 35 amino acids of Akt1', but the printed peptide has 24 residues; also called fluorescein-labeled peptide (unphosphorylated)
T1 peptide: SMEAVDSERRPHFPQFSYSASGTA
Experiment: fluorescence polarisation; fluorescence anisotropy; reverse titration of 200 to 250 µM Akt1^ΔC in buffer with 100 nM fluorescein-labeled peptide; 20 °C, 20 mM Tris pH 8.0, 100 mM NaCl, 1 mM TCEP; one-site binding model; three independent titrations; saturation not reached
Conditions: both partners purified

Kd: ~500 µM
B1: Akt1 1 to 456 (Akt1^ΔC) (domain or fragment)
chain: MNDVAIVKEGWLHKRGEYIKTWRPRYFLLKNDGTFIGYKERPQDVDQREAPLNNFSVAQCQLMKTERPRPNTFIIRCLQWTTVIERTFHVETPEEREEWTTAIQTVADGLKKQEEEEMDASAEHTDMEVSLAKPKHRVTMNEFEYLKLLGKGTFGKVILVKEKATGRYYAMKILKKEVIVAKDEVAHTLTENRVLQNSRHPFLTALKYSFQTHDRLCFVMEYANGGELFFHLSRERVFSEDRARFYGAEIVSALDYLHSEKNVVYRDLKLENLMLDKDGHIKITDFGLCKEGIKDGATMKTFCGTPEYLAPEVLEDNDYGRAVDWWGLGVVMYEMMCGRLPFYNQDHEKLFELILMEEIRFPRTLGPEAKSLLSGLLKKDPKQRLGGGSEDAKEIMQHRFFAGIVWQHVYEKKLSPPFKPQVTSETDTRYFDEEFTAQMITITPPDQDD
modifications: phosphothreonine at T450 (stoichiometrically monophosphorylated, turn motif)
